Patent publication US20230049732A1 (UNIVERSITY OF LOUISVILLE RESEARCH FOUNDATION, published 2023)

T1: VLPs of B19V genotype 3 (V9 strain VP2) (parvovirus B19 genotype 3, UniProt P07299 228-781)
T1 construct: Intact VLPs of non-mutated VP2
T1 chain: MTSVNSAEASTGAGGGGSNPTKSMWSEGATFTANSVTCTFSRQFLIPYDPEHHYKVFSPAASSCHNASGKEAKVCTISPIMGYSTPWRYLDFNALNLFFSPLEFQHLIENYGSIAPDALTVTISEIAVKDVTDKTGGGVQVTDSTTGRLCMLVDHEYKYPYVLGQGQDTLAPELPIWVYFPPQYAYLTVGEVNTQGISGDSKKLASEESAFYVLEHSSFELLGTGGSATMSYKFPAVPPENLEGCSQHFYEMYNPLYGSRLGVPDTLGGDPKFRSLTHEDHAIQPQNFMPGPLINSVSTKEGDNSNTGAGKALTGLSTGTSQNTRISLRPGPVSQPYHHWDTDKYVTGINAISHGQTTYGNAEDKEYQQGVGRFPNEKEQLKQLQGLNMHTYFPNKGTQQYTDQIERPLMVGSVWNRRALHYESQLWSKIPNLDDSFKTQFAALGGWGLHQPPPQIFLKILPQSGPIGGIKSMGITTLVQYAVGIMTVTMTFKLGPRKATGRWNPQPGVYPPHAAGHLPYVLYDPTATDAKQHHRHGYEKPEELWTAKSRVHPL

B1: MAb #91 (antibody, V domains shown)
VH: EVQLQQSGPELVKPGASVKISCKASGYSFTDYFMNWVKQSHGKSLEWIGRINPYNGDSFYNQNFRGSVTLTVDKSSGTAHMELLSLTSEDSTVYYCGAYRYDGYAMDYWGQGTSVTVSS
VL: DVVMTQTPLSLPVSLGDQASISCRSSQSLVHSDGNTYLHWYLQKPGQSPKLLIYKVSNRFSGVPDRFSGSGSGTDFTLKISRVEAEDLGVYFCSQSTHVPFTFGSGTKLEIK
notes: Murine hybridoma antibody, supernatant; also called antibody 91
B2: MAb #25 (antibody, V domains shown)
VH: QVQLQQPGAELVRPGASVKLSCKASGYTFTNYWMHWVKQRPEQGLEWIGRIDPYDSETHYNQKFKDKAILTVDTSSNTAYMQLSSLTSEDSAVYYCTSYYYGSNYVWHFDVWGAGTTVTVSS
VL: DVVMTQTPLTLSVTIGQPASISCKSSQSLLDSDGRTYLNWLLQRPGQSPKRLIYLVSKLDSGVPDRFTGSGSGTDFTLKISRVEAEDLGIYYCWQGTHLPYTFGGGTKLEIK
notes: Murine hybridoma antibody, supernatant; also called antibody 25

Target: T1, VLPs of B19V genotype 3 (V9 strain VP2)
Test: ELISA, VLPs coated

Row | Binder | ELISA absorbance (405 nm)
1 | B1 | 3.05
2 | B2 | 2.65
